Experimental data reported in patent US20090170219.

Tested on: IgG Fc fragment (IgG-Fc) (human), P01857-1
Test: SPR
Settings: 2'-F at all pyrimidines; solution A

Row | Sequence | Kd [pM]
1 | GGGACACAAUGGACGAAAGGUGCUCCAACUAAAUUUGGAACUUUCCACCCAUAAUAACGGCCGACAUGAGAG [SEQ ID NO:8] | 7000
2 | GGGACACAAUGGACGACUACAAGGUGCUCCUUGAAAUGUUAAAUGAGGAACUUGUAACGGCCGACAUGAGAG [SEQ ID NO:5] | 0.6
3 | GGGACACAAUGGACGAGUUACAGGUGCUCCAUCAACAAAAUGUUACAUGGAACUGUAACGGCCGACAUGAGAG [SEQ ID NO:1] | 1.1
4 | GGGACACAAUGGACGGCCAACGUUAACUGGAACUGUAAAUCAGGUGCUCGAGAUAACGGCCGACAUGAGAG [SEQ ID NO:4] | 6
5 | GGGACACAAUGGACGGCGUAAAAUGGAACCUGGGUUAGAAUAUCGGGGGUGCUCCGUAACGGCCGACAUGAGAG [SEQ ID NO:3] | 0.5
6 | GGGACACAAUGGACGGCUGGUAAGGUGCUCGGAAUGGAACUCGUCAUUCGGAACUUAACGGCCGACAUGAGAG [SEQ ID NO:6] | 3000
7 | GGGACACAAUGGACGGGUGUUACAGGUGCUUGAUAAAGGUAGAAAAUCAAACUGUAACGGCCGACAUGAGAG [SEQ ID NO:7] | 1
8 | GGGACACAAUGGACGUCAAAGAAGAGGUGCUCUGCGAGCCACGCGGAACUCUAUAACGGCCGACAUGAGAG [SEQ ID NO:2] | 7400
